Experimental data: PMC5278371

Substrate: O=[N+]([O-])c1ccc(O[C@@H]2O[C@H](CO)[C@@H](O)[C@H](O)[C@H]2O)cc1
Test: purified protein
Details: free enzyme, 2–16 mM p-NPG, 50 mM NaAc-HAc buffer, 40 °C

B1: β-glucosidase (BG), his-tagged (Coptotermes formosanus) (protein)
chain: DDVDNDTLVTFPDDFKLGAATASYQIEGGWDADGKGPNIWDTLTHERPHLVVDRSTGDVADDSYHLYLEDVRLLKDMGAEVYRFSISWARILPEGHDNNVNEAGIEYYNKLIDALLRNGIEPMVTMYHWDLPQKLQDLGGWPNRILAKYAENYARVLFSNFGDRVKQWLTFNEPLTFMDAYASDTGMAPSVDTPGIGDYLTAHTVILAHANIYRLYEREFREEQQGQVGIALNIHWCEPETGSPKDVEACERYQQFNLGIYAHPIFSENGDYPSVLKARVDANSASEGYTTSRLPKFTPEEVAFVNGTYDFLGLNFYTAVVGRDGVEGEPPSRYRDMGTITSQDPEWPESASSWLRVVPWGFRKELNWIANEYGNPPIFITENGFSDYGGVNDTNRVLYYTEHLKEMLKAIHIDGVNVIGYTAWSLIDNFEWLRGYTERFGIHAVNFIDPSRPRTPKESARVLTEIFKTRQIPERFRD
  Km: 4.2 ± 0.3 mM
  kcat: 58.8 s⁻¹
  kcat/Km: 14000 M⁻¹ s⁻¹
